Test results published in the RNAGym collection of RNA variant scans (doi:10.1093/nar/gkz1192).

B1: CPEB3 Ribozyme (parent)
chain: UAACAGGGGGCCACAGCAGAAGCGUUCACGUCGCAGCCCCUGUCAGAUUCUGGUGAAUCUGCGAAUUCUGCUGUAUAUCUC

Variants of: B1
Test: self-cleavage, relative activity (ratio to wild type); higher = more cleavage; in vitro, sequencing
Procedure, shortened: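 Relative activity was defined as the cleaved/total read fraction for a variant divided by the same fraction for the unmutated ribozyme. CPEB3 self-cleaving ribozyme libraries were made by rounds of error-prone PCR, barcoded, and transcribed in vitro with T7 RNA polymerase for 5 hours at 37°C, and cleavage ran through transcription plus a 15 min DNase I step before EDTA. Illumina sequencing of template-switched reverse transcripts gave the reads, and DNA sequencing mapped the barcodes. Averages come from three batches, using variants with at least 5 reads.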

| Variant | self-cleavage |
| --- | --- |
| U31A C40U | 0.27 |
| C29U U69G | 0.35 |
| C29U U69C | 0.16 |
| C29U U69A | 0.3 |
| C29U C81A | 0.71 |
| G30A U49G | 0.22 |
| G30A U49A | 0.1 |
| G30A U49C | 0.16 |
| G30C C62U | 0.06 |
| G30U A57G | 0.13 |
| G30U A57U | 0.14 |
| C29U U66C | 0.37 |
| C29U U66A | 0.22 |
| C29U U74C | 0.97 |
| G30C C40U | 0.23 |
| C29U C38U | 0.16 |
| U31A U43G | 0.33 |
| U31A U43A | 0.7 |
| U31A U43C | 0.37 |
| C29G A64G | 0.41 |
| G30U A77G | 0.16 |
| G30C A56G | 0.16 |
| C29G U41A | 0.33 |
| C29G U41G | 0.15 |

| Variant | self-cleavage |
| --- | --- |
| C29G U41C | 0.2 |
| U31A G36U | 0.1 |
| G30A U48C | 0.27 |
| G30A U48G | 0.14 |
| G30A U48A | 0.35 |
| U31A G46C | 0.2 |
| U31A G46U | 0.12 |
| G30A C40U | 0.54 |
| C29U C37U | 0.34 |
| G30A G70A | 0.39 |
| U31A A57G | 0.53 |
| G30U A64G | 0.23 |
| G30U G33A | 0.24 |
| G30A U41A | 0.14 |
| G30A U41G | 0.4 |
| G30A U41C | 0.22 |
| U31A C79U | 0.48 |
| G30C A75G | 0.12 |
| G30A A64G | 0.43 |
| G30A A64U | 0.34 |
| G30U U54C | 0.14 |
| G30A A45C | 0.17 |
| G30A A45U | 0.32 |
| G30A A45G | 0.25 |

| Variant | self-cleavage |
| --- | --- |
| G30A A35U | 0.15 |
| G30A A35G | 0.22 |
| C29U A56U | 0.16 |
| C29U A56G | 0.38 |
| C29U A56C | 0.42 |
| G30A U31C | 0.35 |
| G30A U31A | 0.32 |
| G30A U31G | 0.21 |
| U31A A45G | 0.35 |
| U31A A45U | 0.32 |
| C29G G55A | 0.16 |
| G30U U66A | 0.13 |
| U31A C68U | 0.54 |
| G30C U72A | 0.13 |
| G30C U72G | 0.16 |
| C29A U69C | 0.18 |
| C29A U69G | 0.22 |
| U31A G73A | 1.04 |
| U31A G73C | 1.08 |
| C29U U76C | 0.52 |
| C29U U76A | 0.62 |
| G30C U67A | 0.18 |
| G30C U67G | 0.09 |
| U31A C81U | 0.58 |

| Variant | self-cleavage |
| --- | --- |
| U31A C34G | 0.2 |
| U31A C34U | 0.23 |
| G30A G55A | 0.2 |
| G30A G61C | 0.24 |
| C29U C79U | 0.38 |
| C29U C79G | 0.68 |
| C29U C79A | 0.7 |
| G30A U58C | 0.16 |
| G30A U58A | 0.09 |
| G30C U48C | 0.16 |
| C29G C81A | 0.3 |
| G30U A35G | 0.05 |
| C29U U72A | 0.42 |
| C29U U72C | 0.75 |
| C29U U72G | 0.53 |
| G30U G42A | 0.23 |
| G30A G73U | 0.46 |
| C29U U49A | 0.16 |
| C29U U49C | 0.39 |
| G30U G52A | 0.17 |
| C29U G52U | 0.39 |
| C29U G52A | 0.46 |
| C29U C39A | 0.28 |
| C29U C39G | 0.22 |

| Variant | self-cleavage |
| --- | --- |
| G30A U51G | 0.1 |
| G30A U51A | 0.15 |
| G30U A56G | 0.26 |
| C29G U54A | 0.28 |
| C29G U54C | 0.24 |
| G30A A57G | 0.29 |
| G30C U49C | 0.08 |
| G30A U78A | 0.53 |
| G30A U78C | 0.24 |
| C29G U58C | 0.52 |
| C29G U74C | 0.31 |
| G30C A45C | 0.34 |
| G30C A45U | 0.09 |
| G30U G70C | 0.15 |
| C29A U78A | 0.27 |
| C29A U78C | 0.3 |
| G30U U41A | 0.16 |
| G30U U41G | 0.13 |
| G30U U41C | 0.27 |
| C29U U78C | 0.44 |
| C29U U78A | 0.36 |
| C29U U78G | 0.61 |
| C29G A57G | 0.51 |
| C29G A45G | 0.29 |

| Variant | self-cleavage |
| --- | --- |
| G30A A56U | 0.37 |
| G30A A56G | 0.37 |
| C29A U74A | 0.62 |
| U31A G33U | 0.13 |
| U31A G33A | 0.24 |
| C29U A64G | 0.23 |
| C29U A64C | 0.24 |
| C29U A64U | 0.25 |
| U31A A75U | 0.61 |
| U31A A75G | 0.47 |
| C29U G30U | 0.23 |
| G30U A47G | 0.22 |
| C29G U60A | 0.29 |
| C29G U60C | 0.11 |
| G30C U54A | 0.22 |
| G30A G36U | 0.44 |
| G30A G36A | 0.4 |
| G30U U80C | 0.17 |
| C29U U48C | 0.25 |
| G30U U69A | 0.1 |
| G30U U78C | 0.09 |
| G30A A75G | 0.26 |
| G30C U41C | 0.28 |
| G30A U66C | 0.32 |

| Variant | self-cleavage |
| --- | --- |
| G30A U66A | 0.23 |
| C29G G73A | 0.39 |
| C29U A65G | 0.27 |
| G30U U72C | 0.08 |
| G30U U72A | 0.22 |
| G30U U72G | 0.15 |
| G30A U43C | 0.24 |
| G30A U43A | 0.24 |
| U31A U48A | 0.13 |
| U31A U48C | 0.29 |
| U31A U48G | 0.16 |
| G30A C34G | 0.38 |
| C29U G42A | 0.21 |
| C29U G42U | 0.23 |
| U31A A47U | 0.29 |
| U31A A47G | 0.54 |
| C29G U78C | 0.21 |
| C29G U31C | 0.13 |
| C29U A45G | 0.42 |
| C29U A45U | 0.19 |
| C29U U41G | 0.26 |
| C29U U41A | 0.43 |
| C29U U41C | 0.49 |
